Assay results published in patent US20210317201A1 (Boehringer Ingelheim, published 2021).
“And” between values parts separate entries of the source, which are not always exact repeats. Equal entries are not always repeated.

B1: 18C4 (antibody, V domains shown)
VH: EVQLQQSGPEVVKPGASVKMSCKASGYTFTSSVIHWVKQKAGQGLEWIGYINPYNDGTKYNEKFKGKATLTSDRSSSTAYMELSSLTSEDSAVYYCTRRLDEAYWGQGTLVTVSA
VL: DIVMTQSPATLSVTPGDRVSLSCRASQSISEYLHWYQQKSHESPRLLIKYASQSISGIPSRFSGSGSGSDFTLSINSVEPEDVGVYYCQNGHSFPFTFGSGTKLEIK
notes: Mouse monoclonal antibody from hybridoma; also called 18C4vk; 18C4vh
B2: Chimeric 24A5 (antibody, V domains shown)
VH: EVQLQQSGPELVKPGASVKMSCKASGYTFTTSIMHWVKQKPGQGLEWIGYINPYDDVTKYNEKFKGKATLTSDKSSSTAYMELSSLTSEDSAVYYCVRRWDEAYWGQGTLVTVSA
VL: DIVMTQSPATLSVTPGNRVSLSCRASQSISDYLHWYQQKSHESPRLLIKYASQSISGIPSRFSGSGSGSNFTLSINSVEPEDVGVYYCQNGHSFPFTFGSGTKLEIK
B3: 18E5 (antibody, V domains shown)
VH: EVQLQQSGPELVKPGAAVKMSCKASGYTFTRYLIHWVKQKPGQGLEWIGYINPYNDGTKYNEKFKGKATLTSDKSSSTAYMELSSLTSEDSAVYYCTSNWDLDYWGQGTTLTVSS
VL: DIVMTQSPATLSVTPGDRVSLSCRASQSISDYLYWYQQKSHESPRLLIKFASQSISGIPSRFTGSGSGSDFTLSIDSVEPDDVGVFFCQNGHSFPFTFGGGTKLEIK
notes: Mouse monoclonal antibody from hybridoma; also called 18E5vk; 18E5vh
B4: 24A5 (antibody, V domains shown)
VH: EVQLQQSGPELVKPGASVKMSCKASGYTFTTSIMHWVKQKPGQGLEWIGYINPYDDVTKYNEKFKGKATLTSDKSSSTAYMELSSLTSEDSAVYYCVRRWDEAYWGQGTLVTVSA
VL: DIVMTQSPATLSVTPGNRVSLSCRASQSISDYLHWYQQKSHESPRLLIKYASQSISGIPSRFSGSGSGSNFTLSINSVEPEDVGVYYCQNGHSFPFTFGSGTKLEIK
notes: Mouse monoclonal antibody from hybridoma; also called 24A54vk; 24A5vh
B5: Chimeric 22E2 (antibody, V domains shown)
VH: EVQLQQSGPELVKPGASVKMSCKASGYTFTSSIIHWVKQRPGQGLEWIGYINPYDDVTKYNEKFKGKATLTSDKSSSTAYMELSSLTSEDSAVYYCARRWDESYWGQGTLVTVSA
VL: DIVMTQSPATLSVTPGDRVSLSCRASQSISVYLHWYQQKSPESPRLLIKYASQSISGIPSRFSGSGSGSDFTLSINSVEPEDVGVYYCQNGHSFPFTFGSGTKLEIK
B6: 22E2 (antibody, V domains shown)
VH: EVQLQQSGPELVKPGASVKMSCKASGYTFTSSIIHWVKQRPGQGLEWIGYINPYDDVTKYNEKFKGKATLTSDKSSSTAYMELSSLTSEDSAVYYCARRWDESYWGQGTLVTVSA
VL: DIVMTQSPATLSVTPGDRVSLSCRASQSISVYLHWYQQKSPESPRLLIKYASQSISGIPSRFSGSGSGSDFTLSINSVEPEDVGVYYCQNGHSFPFTFGSGTKLEIK
notes: Mouse monoclonal antibody from hybridoma; also called 22E2vk; 22E2vh
B7: 20E8 (antibody, V domains shown)
VH: EVQLQQSGPELVKPGASVKMSCKASGYTFTSSVMHWVKQKAGQGLEWIGYINPYNDGTQYNEKFKGKATLTSDKFSSTAYMELSSLTSEDSAVYYCTRRLDEAYWGQGTLVTVSA
VL: DIVMTQSPATLSVTPGDRVSLSCRASQSISEYLHWYQQKSHESPRLLIKYASQSISGIPSRFSGSGSGSDFTLSINSVEPEDVGVYYCQNGHSFPFTFGSGTKLEIK
notes: Mouse monoclonal antibody from hybridoma; also called 20E8vk; 20E8vh
B8: 18D3 (antibody, V domains shown)
VH: EVQLQQSGPELVKPGASVKMSCKASGYTFTRYLIHWVKQKPGQGLEWIGYINPYNDGTKYNEKFKGKATLTSDKSSSTAYMELSSLTSEDSAVYYCTSNWDLDYWGQGTTLTVSS
VL: DIVMTQSPATLSVTPGDRVSLSCRASQSISDYLYWYQQKSHESPRLLIKFASQSISGIPSRFTGSGSGSDFTLSIDSVEPDDVGVFFCQNGHSFPFTFGGGTKLEIK
notes: Mouse monoclonal antibody from hybridoma; also called 18D3vk; 18D3vh
B9: 27G8 (antibody, V domains shown)
VH: QVQLQQSDAELVKPGASVKISCKVSGYTFTDHTIHWMKQRPEQGLEWIGYIYPRDGYPKFNEKFKGKATLTADKSSSTAYMQLNSLTSEDSAVYFCARRPPYYAMDYWGQGTSVAVSS
VL: DIVLTQSPASLAVSLGQRATISCRASKSVSTSGYSYIHWYQQKPGQPPKFLIYLASNLDSGVPARFSGSGSGTDFTLNIHPVEEEDAATYYCQHSRELPYTFGGGTKLEIK
notes: Mouse monoclonal antibody from hybridoma; also called 27G8vk; 27G8vh
B10: 26F7 (antibody, V domains shown)
VH: EVQLQQSGPELVKPGASVKISCKASGYTFTDYYMNWVRQSHGESLEWIGDFNHNNDVITYNPKFKGKVTLTVEKSSTTAYMELRSLSSEDSAVYYCARGLRGYYAMDYWGQGTSVTVSS
VL: DIVLTQSPASLAVSLGQRATISCRASKSVRFSDYFYMHWYQQKPGQPPKLLIYLASNLESGVPARFSGSGSGTDFTLNIHPVEEEDAATYYCQNSRELPYTFGGGTKLEIK
notes: Mouse monoclonal antibody from hybridoma; also called 26F7Vk; 26F7VH
B11: 15C11 (antibody, V domains shown)
VH: EVQLQQSGPVLVKPGASVKMSCKASGYTFTDYYMNWVKQSHGKSLEWIGVIIPYNGGTSYNQKFKGKATLTVDKSSSTAYMELNSLTSEDSAVYYCARDGHRWYFDVWGTGTTVTVSS
VL: DVVMTQTPLSLPVSLGDQASISCRSSQSLVHSNGNTYLHWYLQKPGQSPKLLIYKVSNRFSGVPDRFSGSGSGTDFTLKINRVEAEDLGVYFCSQSTHVPYTFGGGTQLEIK
notes: Mouse monoclonal antibody from hybridoma; also called 15C11vk; 15C11vh
B12: 43F5 (antibody, V domains shown)
VH: EVQLQQSGPELVKPGASVKISCRASGYSFTGYYMNWVKQSPEKSLEWIGEIIPTTGGTSYNQKFKAKATLTVDKSSSTAYMQLKSLTSEDSAVYYCARESGGFYWYFDVWGTGTTVTVSS
VL: DVVMTQSPLSLPVSLGDQASISCRSSQSLVHSNGNTYLHWYLLKPGQSPKLLIYKVSNRFSGVPDRFSGSGSGTDFTLKISRVEAEDLGVYFCSQSTHVPYTFGGGTKLEIK
notes: Mouse monoclonal antibody from hybridoma; also called 43F5vk; 43F5vh
B13: 73H10 (antibody, V domains shown)
VH: EVQLQQSGPELVKPGASVKMSCKASGYTFTRYVMHWVKQKPGQGLEWIGYINPYNDVTKYNEKFKGKATLTSDRSSSTAYMKLSSLTSEDSAVYYCARNWDVPYWGQGTLITVSA
VL: DIQMTQSPVFLSASVGETVTITCRASENIDSYLAWYQQKQGKSPQLLVFAARNLADGVPSRFSGSGSGTQYSLKINRMQSEDVARYYCQHYYSTPFTFGSGTKLEIE
notes: Mouse monoclonal antibody from hybridoma; also called 73H10Vk; 73H10VH
B14: 74H3 (antibody, V domains shown)
VH: EVQLQQSGPELVKPGASVKMSCKASGYTFTRYLMHWVKQKPGQGLEWIGYINPYNDGTKYNERFKGKATLTSDKSSSTAYMELSSLTSEDSAVYYCARNWDVPYWGQGTLVTVSA
VL: DIQMTQSPASLSASVGETVIFTCRASENIDSYLAWYQQKQGKSPQLLVYAATNLADGVPSRFSGSGSGTQYSLKINSLQSEDVARYYCLHYYSTPFTFGSGTELEIK
notes: Mouse monoclonal antibody from hybridoma; also called 74H3Vk; 74H3VH
B15: 2D1 (antibody, V domains shown)
VH: QVQLKESGPGLVAPSQSLSITCTVSGFSLTTYAISWVRQSPGKGLEWLGVIWTGGGTKYNSALKSRLSISKDNSKSQVFLKMNSLQTDDTARYYCARKDYNYGGAMDYWGQGTSVTVSS
VL: DIVLTQSPGSLAVSLGQRATISCRTSESVYSYGQNFIHWYQQKPGQPPKLLIYRASNLESGIPARFSGSGSRTDFTLTMNPVEADDVATYYCQQTNEDPYTFGGGTKLEIR
notes: Mouse monoclonal antibody from hybridoma; also called 2D1vk; 2D1vh

Experiments:
recombinant human IL-23 [1] = molecular target: T1, recombinant human IL-23 (human, UniProt P29460 23-328); assay: cell-based or functional assay
T1 sequence 1: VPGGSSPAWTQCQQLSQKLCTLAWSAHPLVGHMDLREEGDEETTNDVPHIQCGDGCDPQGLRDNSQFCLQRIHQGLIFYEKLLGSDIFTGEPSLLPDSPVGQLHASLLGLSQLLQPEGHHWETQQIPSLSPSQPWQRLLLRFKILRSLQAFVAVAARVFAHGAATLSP
T1 sequence 2: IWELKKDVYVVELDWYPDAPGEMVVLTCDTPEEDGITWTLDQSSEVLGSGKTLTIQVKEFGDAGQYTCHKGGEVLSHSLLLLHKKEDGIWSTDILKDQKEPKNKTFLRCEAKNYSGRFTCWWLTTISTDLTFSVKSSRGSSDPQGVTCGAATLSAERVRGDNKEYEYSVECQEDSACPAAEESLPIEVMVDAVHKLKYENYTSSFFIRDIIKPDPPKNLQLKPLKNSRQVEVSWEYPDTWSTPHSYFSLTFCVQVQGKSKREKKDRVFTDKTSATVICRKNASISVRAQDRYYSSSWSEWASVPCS

recombinant human IL-23 [2] = molecular target: T1, recombinant human IL-23; assay: BLI, Fortebio Octet; hybridoma-derived antibody
Description: Kinetics and binding affinities were measured using the Fortebio OCTET® (Fortebio, Menlo Park, Calif.) using material generated from hybridoma following single column purification.

[3] = molecular target: T2, natural human IL-23 from activated THP-1 cells (human, UniProt P29460 23-328); assay: cell-based or functional assay
T2 sequence 1: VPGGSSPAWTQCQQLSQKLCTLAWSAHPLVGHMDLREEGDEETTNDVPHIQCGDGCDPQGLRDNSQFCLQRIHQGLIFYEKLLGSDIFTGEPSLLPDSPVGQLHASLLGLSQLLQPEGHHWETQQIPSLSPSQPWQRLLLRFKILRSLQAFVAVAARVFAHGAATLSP
T2 sequence 2: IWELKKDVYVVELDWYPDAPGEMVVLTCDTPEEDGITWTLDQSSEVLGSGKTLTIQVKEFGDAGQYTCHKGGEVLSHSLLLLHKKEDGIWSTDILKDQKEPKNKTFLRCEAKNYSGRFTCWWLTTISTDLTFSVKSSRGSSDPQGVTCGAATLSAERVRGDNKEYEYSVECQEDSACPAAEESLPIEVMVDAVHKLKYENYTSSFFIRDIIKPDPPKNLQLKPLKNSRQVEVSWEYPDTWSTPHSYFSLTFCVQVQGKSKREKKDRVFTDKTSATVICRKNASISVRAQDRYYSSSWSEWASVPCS

Binder | IC50, IL-23 stimulated IL-17 production from mouse splenocytes (recombinant human IL-23 [1]) | Kd (recombinant human IL-23 [2]) | koff (recombinant human IL-23 [2]) | kon (recombinant human IL-23 [2]) | IC50, IL-23 stimulated IL-17 production from mouse splenocytes [3]
B1 | 0.471 nM | 0.00557 nM | 2.14e-06 s⁻¹ | 384000 M⁻¹ s⁻¹ | 
B2 | 0.404 nM |  |  |  | 0.095 nM and 0.102 nM
B3 |  | 0.00793 nM | 2.61e-06 s⁻¹ | 329000 M⁻¹ s⁻¹ | 0.009 nM and 0.013 nM
B4 | 0.022 nM and 0.037 nM | 0.0226 nM | 4.57e-06 s⁻¹ | 202000 M⁻¹ s⁻¹ | 0.085 nM and 0.031 nM
B5 | 0.1 nM |  |  |  | 
B6 | 0.061 nM and 0.13 nM | 1.02 nM | 0.000353 s⁻¹ | 346000 M⁻¹ s⁻¹ | 
B7 |  | 0.638 nM | 0.000269 s⁻¹ | 421000 M⁻¹ s⁻¹ | 0.438 nM and 0.561 nM
B8 | 0.234 nM | 0.00678 nM | 2.16e-06 s⁻¹ | 319000 M⁻¹ s⁻¹ | 
B9 | 0.235 nM | 0.0272 nM | 4.26e-06 s⁻¹ | 157000 M⁻¹ s⁻¹ | 5 nM
B10 | 0.027 nM | 0.0281 nM | 1.34e-05 s⁻¹ | 476000 M⁻¹ s⁻¹ | 
B11 | 0.126 nM | 0.026 nM | 1.07e-05 s⁻¹ | 411000 M⁻¹ s⁻¹ | 0.232 nM
B12 |  | 0.0346 nM | 5.96e-06 s⁻¹ | 172000 M⁻¹ s⁻¹ | 8 nM
B13 | 1.41 nM | 0.0992 nM | 5.24e-06 s⁻¹ | 52900 M⁻¹ s⁻¹ | 
B14 | 1.35 nM | 0.0683 nM | 2.09e-06 s⁻¹ | 30600 M⁻¹ s⁻¹ | 
B15 |  | < 0.001 nM | < 1e-06 s⁻¹ |  | 2.34 nM and 1.91 nM and 1.6 nM
